The source of these data is the DeepSol protein solubility set.

This series can be described thus: soluble on expression in E. coli; label from the status in PepcDB or PDB records.
“MGSDKIHHHHHHMQQLQAAVALHKQGELDKAEAIYQQVLAVDVNNFYALNFCGSIKREKKRFDEGIDFLSRAISLQPDNPDAIYNLGNVFKDSERWDEAISCYEKTLGLRAESPEALNNLGICLKEVERFEYSEIVLRRVVSMQPGLAGAWLNLGNTFKEQEKYSEAKASYRNAIDLKPDFEAAYFALGLVLKEEGKVEEAIASYRKAIELKPDFADVYFALGLVLKEAGEFEAARQIVSALSTVNAMEDSTLLSFSLCDLVFDWYHRRVLNLLEDVEMTALSGASAPFSAYETVRKIQPQLFPPLFLKGEGDRANEKHLYRNGYLVEDEILPEDLCAEFVNGFEGANAMSAALIRAVSEKGVLGSVLGKIFKHTDFPHLVWNCIYFAKGPDDQAISDAWHYDNHYNVWTPKLMIYLNSQREEGGATEFVDTSLSRRLSEETDYMGFIWQRESYADRVKGSVKDLGLDPATLDPDHYTFSPDHAGSGVWFCPSRVLHRGVSPKKGVRHVLSFSLTPLPHDCGWSIDQCVDKSIEILQDKINKGMQKSDVNPYWIPAEAGYA”: the “soluble on expression in E. coli” value is “not soluble”.

For the sequence “MKANRSIACLLLAALPTLASAHVAEKVETLHDQALAEIPGHRGLMLTVSFKPGQVSAPHVHPGSVFVYVLEGTVQTQLEGGSVETYTVGQSWYEPANVPHLLARNPDPMKPAKLLVWELLKEGDPILKPLERGAH”, the “soluble on expression in E. coli” value is “not soluble”.

With “MGHHHHHHGSSIETDRVSKEFIEFLKTFHKTGQEIYKQTKLFLEGMHYKRDLSIEEQSECAQDFYHNVAERMQTRGKVPPERVEKIMDQIEKYIMTRLYKYVFCPETTDDEKKDLAIQKRIRALRWVTPQMLCVPVNEDIPEVSDMVVKAITDIIEMDSKRVPRDKLACITKCSKHIFNAIKITKNEPASADDFLPTLIYIVLKGNPPRLQSNIQYITRFCNPSRLMTGEDGYYFTNLCCAVAFIEKLDAQSLNLSQEDFDRYMSGQTSPRKQ”, the “soluble on expression in E. coli” value was “soluble”.

“MGSDKIHHHHHHMEKEIPEMFASNYQDWQPIYNWDTCKAGRKEYGKFLCSFLTSSKDDLVVNLNGSWGTGKTELLRRLYVELAERQHPVVYINAWESDFCDDALSVISSEFLNQLEVAFGHNGDPKWLSKFNNLKQKLGKALKFGSLGATMNGEPNAATLLGATSAAVNELPDLASAAVSDNNIRLIEKISSNHANRVQAMKEVREQISALADTMQMVCEAELPIVVLVDELDRCRPTYAIEMLEVIKHFFEARGCVFLVATDTVALEHSIKAVYGASFESEKYLRRFFDRRIALPPLSITQYLKAKALDFTRYQTDQLRLFPFTAINAQLIKIFALLFENAQMSLRDVEQSLQKCVASLEYLQSLGTRPQIVNVIVLMMGSLSSNYRPNRFRIDLQIKYFPMELV”: the “soluble on expression in E. coli” value was “not soluble”.

Regarding “MAHHHHHHMLLQFNWDRLDVTAAEAICALLNAKLEEELLLRRAANQSVNASGGQETASADAACGVESLRVTNIEWGNVPPFIEVVELDDAVEFASSTPLSFEAPLGQQDFGGTISSGTCGGGATTPFFLRPSPASSVTMMDGISETDSGIVGNHGGMPTPSVPPASGIRPGNGQSPINSSSAPVKDAFAAYFGPKGLYVCLHVTYGGPMRVSVASVLRHDVPLGPIAIPVRMPLQLHFSKMDMDFHLCINLHRNTCRVWMEPGKLFTSPLNRMNVMAVFGERRPSSQHMAEFPTSGQNAGDDLDTSDAWTHVGSSRIGSDDAEDMVFIDESIISQFVLKEVRAILQEKIIYPHSVVVPLSL”, the “soluble on expression in E. coli” value is listed as “not soluble”.

As to “MNRSALDFRHFVDHLRRQGDLVDVHTEVDANLEIGAITRRVYERRAPAPLFHNIRDSLPGARVLGAPAGLRADRARAHSRLALHFGLPEHSGPRDIVAMLRAAMRAEPIAPRRLERGPVQENVWLGEQVDLTRFPVPLLHEQDGGRYFGTYGFHVVQTPDGSWDSWSVGRLMLVDRNTLAGPTIPTQHIGIIREQWRRLGKPTPWAMALGAPPAALAAAGMPLPEGVSEAGYVGALVGEPVEVVRTQTNGLWVPANTEIVLEGEISLDETALEGPMGEYHGYSFPIGKPQPLFHVHALSFRDQPILPICVAGTPPEENHTIWGTMISAQLLDVAQNAGLPVDMVWCSYEAATCWAVLSIDVQRLAALGTDAAAFAARVAETVFGSHAGHLVPKLILVGNDIDVTEIDQVVWALATRAHPLHDHFAFPQIRDFPMVPYLDAEDKARGSGGRLVINCLYPEQFAGQMRAATASFRHAYPTALRRRVEERWSDYGFGDALEHHHHHH”, the “soluble on expression in E. coli” value is on record as “not soluble”.

On to “MKIFSRLGHVLLICSSLIIAIPAHSADSSTTTKAGVKKTVKKQELSANSALVIDLKTNEIIYSNNPDAVKPIASVTKLMTAIVTLDAKLPMDAKLPITIKDAKEMKGVHSRVKIGSEISRKDMLLLTLMSSENRAAASLAHHYPGGYKAFIKAMNAKAKALGMKNTRFVEPTGLSAKNVSTARDLVVLLKASKKYPLLGKLSATDKKTVTFSKPRYTLDFRNTNRLVHNDNWKIDLTKTGFTNAAGHCLVMRTQMGRRQVAFVVLDTKGKLSPVGDANRLRTWIETGKVTPLSSEAKQYKKQRSQEQIAKISDYKS”, for which the “soluble on expression in E. coli” value is “not soluble”.

Consider “MSSNFIVESCSVDSEEGVKLHTRIFKPRNEGEEVSDDENLVIVLVHPFSLLGGCQALLKGIASELASKGFKSVTFDTRGAGKSTGRATLTGFAEVKDVVAVCRWLCQNVDAHRILLVGSSAGAPIAGSAVEQVEQVVGYVSLGYPFGLMASILFGRHHKAILSSPKPKLFVMGTQDGFTSVSQLKKKLKSAVGRTETHLIEGVSHFQMEGPEYDSQVTDIICKFISSL”, for which the “soluble on expression in E. coli” value is recorded as “not soluble”.

Consider “MFARAPFVRLLSTTSRNLAEAEKKVSKEALMALRKKTGYSYVNCRKALIQFGENDMDSAVKWLKEAAAKEGWAKAAKLGTRVTSNGLVSVVTDNSTAAVVELSCETDFVARSGAFKDLLSNISNSVLAKAKPQSISSGSKLQEFTYDLGDLTDSDGKNMREVLSLSIGKLGENMTVRRVKAFKAPEGTTLFGASHPKDGTDDIPMGRFISLIALNQSSPGSISSQQLAGQICQHIIGMSPESLGEAAESVKTQEGLRSQEGHDPNADPVVVTNIDESETALLRQAFMLNPSQSVHEYLKSHNANILDFVRVELGSE”, for which the “soluble on expression in E. coli” value is listed as “not soluble”.

Take “QVTISITEDCPNNCIHCALPDTKNRAKLSPETVRDVIDQVLEMGTTFVIFDGGEPLTYPGLEELISYVDPEKAITGMFTSGVGLTEERARSLKAAGLYSLTVSFDSAYEEKHDYVRGRKGVFKSAVEAVKNGLAAGLLVNIYVVLSRDNVNELDELYNLAAGLGAHELSFYEIVPTGRWMDHASEIMTPKDMRK”: the “soluble on expression in E. coli” value was “not soluble”.

Turning to “DRFVYTCNECKHHVETRWHCTVCEDYDLCITCYNTKNHDHKM”, the “soluble on expression in E. coli” value is given as “not soluble”.

For the sequence “DENASAAEQVNKTIIGIDPGSGIMSLTDKAMKDYDLNDWTLISASSAAMTATLKKSYDRKKPIIITGWTPHWMFSRYKLKYLDDPKQSYGSAEEIHTITRKGFSKEQPNAAKLLSQFKWTQDEMGEIMIKVEEGEKPAKVAAEYVNKHKDQIAEWTKGVQKVKGDKINLAYVAWDSEIASTNVIGKVLEDLGYEVTLTQVEAGPMWTAIATGSADASLSAWLPNTHKAYAAKYKGKYDDIGTSMTGVKMGLVVPQYMKNVNSIEDLKK”, the “soluble on expression in E. coli” value is recorded as “soluble”.

Consider “SSSPPEGKLETKAGHPPAVKAGGMRIVQKHPHTGDGKEERDKDDQEWESTSPPKPTVFISGVIARGDKDFPPAAAQVAHQKPHASMDKHVSPRTQHIQQPRK”, for which the “soluble on expression in E. coli” value was “soluble”.

“MDMEVDEAISGTSSSRLAPIEEVKPTPKQIKRIAAHSHVKGLGIDTETQEAHYEAAGFVGQAPARTAASIVVDMIRLKCMAGRAVLIAGPPATGKTAIALAMSQELGDGVPFVPLVASEVFSNEVKKTEVLMRSFRRAIGLRVKETKDVYEGEVTELSPVEASDNSGMGKTISHLVLSLKTAKGSKQLKLDPSIYDSILKQRVEVGDVIYIEANSGIVKRVGRCDVYASEFDLEADEFVPMPKGDVRKSKDIVQNVSLHDLDIANARPQGRQGDVSNIVSQLMTPKKTEVTDRLRSEINKVVNEYIESGVAELMPGVLFIDEVHMLDVECFTYLYRALESPMAPVVVFATNRGTTTVRGLGDKAPHGIPPEMLDRLMIIPTMKYNEEDIRKILVHRTEAENVQFEEKAFDLLTRLCAQTCGREVIEVEDVDRCTKLFMDRGESLKKAEEEMRQPKNKK”: the “soluble on expression in E. coli” value is recorded as “not soluble”.

On to “MQGFQPPAEKDAIEFAKKHRKEFEKVGEQFFKDNFGLKVKATNVVGKDDGIEVYVHCDDHGIVFNASLPLYKDAIHQKGSMRSNDNGDDMSMMVGTVLSGFEYRAQKEKYDNLYKFFKENEKKYQYTGFTKEAINKTQNVGYKNEYFYITYSSRSLKEYRKYYEPLIQKNDKEFKEGMERARKEVNYAADTDAVATLFSTKKNFTNDNTEDDVIELSDKLYNLKNKPDKSTITIQIGKPTINTKKAFYDDNRPIEYGVHSKGELEHHHHHH”, for which the “soluble on expression in E. coli” value was “soluble”.

For “GSPLPAAGFKKQQRKFQYGNYCKYYGYRNPSCEDGRLRVLKPEWFRGRDVLDLGCNVGHLTLSIACKWGPSRMVGLDIDSRLIHSARQNIRHYLSEELRLPPQTLEGDPGAEGEEGTTTVRKRSCFPASLTASRGPIAAPQVPLDGADTSVFPNNVVFVTGNYVLDRDDLVEAQTPEYDVVLCLSLTKWVHLNWGDEGLKRMFRRIYRHLRPGGILVLEPQPWSSYGKRKTLTETIYKNYYRIQLKPEQFSSYLTSPDVGFSSYELVATPHNTSKGFQRPVYLFHKARSPSH”, the “soluble on expression in E. coli” value is recorded as “soluble”.

As for “MRRQAEAYKAQLAAMVESSDDAIIVKDLNAIITSWNAGAERIFGYQASEITGSSILALIPPERHEEEKGIMSLVKSGNRVDHFETMWWGKGKKPIDVSVTTSAVKDSDGNIVGISQIARDLEHHHHHH”, the “soluble on expression in E. coli” value is “not soluble”.

As to “MPDSTRQPSAPVRDRLQQYGLSETEAETYLAVVEKGPATARTVAETAGVSKSYVYDICDSLAVDGFVSVDDHRTPTVIRATPPSEAFSALKRELDTLEAAVQTRYEDTAAENNTFEVVKSRPTIVKRLEQHIEAADCEVILQIPARRLPDIRDPLRRARERGILVLLTLSSYDRATMELDLKEIANAVRIGLDGAPSLLATDQQRGFVSPSTMLSWDHDETNAITFTQEAVAAVLVGSYLGNYWPIGEEVLVSRPPSLPARYDMFRPVVFTTTLALRAGESVVADLYARPTGSDDDFEVISGEVVDVRQNLVAPHNSDFGFENSLVVDTGDSRITVGGYGAFLEDYEVKHTTLRRA”, the “soluble on expression in E. coli” value is given as “not soluble”.

Take “MEVFVFTPKGDLYKMPKGATVLDFAFAIHSKLGSKCIGAKVNGKNAQLKQTLNSGLEHHHHHH”: the “soluble on expression in E. coli” value is reported as “not soluble”.

In the case of “MSLKPKRILLVNEQRSFQVMMKAMLINIGISRITYANSAEEARRRCQKETFDIYLLDYELGVGENGRQLLESLRDQKLIPPQSVVIMVSGDSSRAMVLSALEAEPDEYLMKPFSQEQFSFRLKRALARRQALESVFSALAKEDLPTLLAACAERADAVPRFANFCRCLQADTQLKLGQAKEARSLMRQLLAGQENSWARLTLGKACHTLGLNEEAVSHLQATLKNTPLMVEAHLWLAESQLALGNDEQAQQELKRAVDISPQSVQLSRRLAEVCLLRHDYAQAKDVLLSLIDLSRNSIHRTPHYLGAYIQSLTLYALNSNEGHHHHHH”, the “soluble on expression in E. coli” value is listed as “not soluble”.

For the sequence “MRNICFVACMLFCLASASGKTVKNHPFVSIADSILDNVLNLYQTEDGLLTETYPVNPDQKITYLAGGAQQNGTLKASFLWPYSGMMSGCVAMYQATGDKKYKTILEKRILPGLEQYWDGERLPACYQSYPVKYGQHGRYYDDNIWIALDYCDYYRLTKKADYLKKAIALYEYIYSGWSDELGGGIFWCEQQKEAKHTCSNAPSTVLGVKLYRLTKDKKYLNKAKETYAWTRKHLCDPDDFLYWDNINLKGKVSKDKYAYNSGQMIQAGVLLYEETGDKDYLRDAQKTAAGTDAFFRSKADKKDPSVKVHKDMSWFNVILFRGFKALEKIDHNPTYVRAMAENALHAWRNYRDANGLLGRDWSGHNEEPYKWLLDNACLIELFAEIEKLEHHHHHH”, the “soluble on expression in E. coli” value is “not soluble”.
